Test results: the supplement of paper PMC10567573

B1: VTI1B (parent)
chain: ANETLAEMEEELRYAPLSFRNPMM
B2: CLCN6 (parent)
chain: FQSISLRKIQFNFPYFRSDRDKRD

Variants of: B1
Experiment: protein stability index of a GFP-peptide fusion (GPS, HEK-293T) (PSI 1-6); higher = more stable
Details: c terminus: a fixed tail appended
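Note: lentivirally expressed fusions sorted by FACS into six bins by GFP to DsRed ratio, PSI derived from sequencing read proportions per bin multiplied by bin number.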

Protein stability index of substitutions, site by site:
P22: I 3.03 | A 3.56 | H 4.1 | E 3.97 | D 4.75 | T 3.22 | W 3.03 | C 3.25 | S 3.48 | R 3.32 | L 3.34 | N 3.58 | M 3.63 | Y 3.38 | V 2.81 | F 2.67 | G 3.58 | Q 4.11 | K 3.43
N21: C 2.71 | F 3.35 | T 3.17 | L 3.13 | K 3.61 | P 3.58 | G 3.72 | W 2.21 | D 3.12 | S 3.41 | E 3.95 | A 3.81 | Y 3.39 | R 3.25 | Q 3.76 | M 3.37 | I 2.92 | H 3.42
S18: I 2.83 | Q 3.35 | P 4.1 | D 2.98 | Y 3.25 | A 2.21 | W 3.98 | L 3.19 | V 3.14 | T 1.79 | E 3.79 | H 2.94 | G 3.19 | F 2.64 | K 3.81 | R 3.8 | N 2.23 | M 2.81 | C 2.24
R20: G 2.65 | Y 2.12 | W 2.48 | T 2.42 | V 1.71 | Q 1.72 | S 2.03 | F 2.63 | I 1.9 | M 2.4 | H 1.7 | A 2.25 | K 3.36 | D 2.48 | L 2.57 | P 3.62 | C 2.35 | N 1.51 | E 2.58
Y14: K 1.93 | M 1.65 | P 2.43 | V 2.09 | W 1.32 | G 2.11 | L 3.08 | C 1.98 | Q 1.67 | T 2.53 | D 3.36 | H 1.7 | F 2.06 | N 2.62 | E 3.66 | R 2.47 | I 1.66 | S 1.94
F19: V 3.28 | T 4.44 | H 4.26 | N 4.3 | R 4.18 | A 3.94 | P 4.87 | E 4.67 | C 4.43 | D 4.85 | Q 3.96 | I 3.73 | Y 2.35 | W 3.24 | G 4.5 | M 4.23 | K 4.49
P16: F 2.17 | V 1.3 | K 2.92 | A 2.26 | H 2.64 | D 3.56 | T 2.77 | Y 2.36 | G 2 | S 2.92 | M 1.77 | C 1.92 | E 2.66 | L 1.88 | Q 2.29 | I 2.43 | R 2.71 | W 1.89 | N 3.15
A15: R 1.76 | Q 1.67 | T 2.06 | E 3.56 | K 3.09 | D 3.7 | I 2.06 | W 2.92 | Y 2.52 | H 1.9 | M 1.53 | F 1.39 | L 2.03 | V 3.98 | S 1.61 | G 3.44 | C 1.64 | N 2.64
L17: Y 3.41 | W 2 | G 3.49 | V 2.8 | E 4.46 | Q 4.14 | A 3.66 | P 3.78 | M 3.13 | K 3.69 | T 4.06 | C 3.58 | H 3.79 | S 2.8 | N 4.16 | R 2.93 | F 1.52 | I 3.02 | D 4.33
M23: G 3.46 | T 3.35 | Y 2.79 | L 3.56 | Q 2.89 | V 1.83 | I 2.04 | W 2.13 | F 2.62 | S 3.62 | D 4.13 | N 3.67 | R 2.19 | K 3.07 | E 2.79 | A 2.71 | C 3.62 | H 3.24
M24: G 3.72 | E 4.67 | H 3.26 | Y 3.46 | R 3.21 | K 3.91 | F 2.83 | P 4.98 | V 3.04 | D 3.92 | A 3.78 | S 4.41 | L 2.26 | N 3.2 | T 3.97 | Q 2.46 | C 2.37 | W 3.97

Variants of: B2
Experiment: as above
Details: c terminus: a fixed tail appended

Protein stability index: each site, then its substitutions
D19: A 1.67 | I 2
D24: N 1.49 | T 2.21 | S 2.23 | P 2 | C 2.75 | M 1.66 | L 2 | E 1.93 | Y 1.58
F16: C 1.52 | P 1.47 | N 2.68 | S 1.83 | I 2.18 | D 2.74
Y15: G 2.68 | H 2.78 | P 2.41 | A 3.09 | E 2.7 | C 2.21 | S 2.58 | I 2.15
S3: D 2.19 | L 1.08 | G 1.89 | I 1.74 | A 1.4 | E 2.73
I9: C 1.98 | Q 2.81 | N 1.47
L6: E 2.08 | N 1.68 | Q 2.13 | T 2.59 | C 1.53
R20: V 1.73 | N 1.72 | M 1.72 | P 1.45 | W 3.61 | C 1.23
K22: W 2.09 | H 1.34 | C 3.83 | D 1.92 | R 1.35 | I 1.81 | Q 1.68 | P 1.66
N12: V 1.9 | E 1.5 | R 2.59
P14: I 1.43 | E 1.99 | C 1.82 | G 1.69 | L 1.24
R17: E 2.26 | D 3.03 | Y 1.22 | C 1.11 | I 1.56 | S 1.5
I4: Q 1.9 | P 2.19 | L 2.44 | M 3 | S 1.74
S18: V 1.25 | P 1.6 | A 1.99
Q10: Y 1 | H 1.51 | V 2.31 | I 2.33 | S 1.98 | C 2.6 | K 1.67
F13: E 3.21 | S 1.59 | C 2.2 | A 1.84 | I 1.35
D21: V 2.94 | Y 1.22 | K 1.31 | H 2.02 | R 1.19 | F 3.21 | G 1.27 | C 2.4 | M 2.08
K8: M 2.08 | P 2.92 | Q 2.12 | H 2.92
F1: D 3.34 | P 2.29 | T 2.77 | E 4
S5: K 1.7 | F 2.62 | A 1.82 | H 1.74
Q2: S 1.96 | G 1.54 | C 1.9 | E 2.69
R23: K 1.91 | F 2.01 | W 1.26 | G 2.85 | D 1.72
R7: H 2.02 | N 1.97 | W 1.77 | E 2.56 | V 2.97 | Q 1.62 | M 1.21 | P 3.68 | S 2.4 | K 1.59
F11: Q 1.25 | H 1.74 | C 1.96 | G 1.41 | R 1.51
